The text below walks through data of the supplement of paper PMC11246515.

± gives the standard deviation of the averaged measurements.

This data set in a line: total protein half-life in vivo (active degradation + dilution); higher = more stable protein.
Setting [1] is: E. coli NCM3722 delta-clpP delta-lon delta-hslV, growth: N-lim chemostat, doubling time 6 h.
The mark [2] stands for this setting: E. coli NCM3722 delta-clpP, growth: N-lim chemostat, doubling time 6 h.
[3] abbreviates: E. coli NCM3722 delta-hslV, growth: N-lim chemostat, doubling time 6 h.
Where [4] appears, read: wild type E. coli NCM3722, growth: N-lim chemostat, doubling time 6 h.
Where [5] appears, read: wild type E. coli NCM3722, growth: N-lim chemostat, doubling time 12 h.
Setting [6] is: wild type E. coli NCM3722, growth: P-lim chemostat, doubling time 12 h.
Setting [7] is: E. coli NCM3722 delta-lon, growth: N-lim chemostat, doubling time 6 h.
Setting [8] is: E. coli NCM3722 delta-smpB, growth: N-lim chemostat, doubling time 6 h.
Where [9] appears, read: wild type E. coli NCM3722, growth: C-lim chemostat, doubling time 3 h.
The mark [10] stands for this setting: wild type E. coli NCM3722, growth: C-lim chemostat, doubling time 6 h.
The mark [11] stands for this setting: wild type E. coli NCM3722, growth: C-lim chemostat, doubling time 12 h.
Setting [12] is: wild type E. coli NCM3722, growth: P-lim chemostat, doubling time 6 h.

Consider “MLFTIQLIIILICLFYGARKGGIALGLLGGIGLVILVFVFHLQPGKPPVDVMLVIIAVVAASATLQASGGLDVMLQIAEKLLRRNPKYVSIVAPFVTCTLTILCGTGHVVYTILPIIYDVAIKNNIRPERPMAASSIGAQMGIIASPVSVAVVSLVAMLGNVTFDGRHLEFLDLLAITIPSTLIGILAIGIFSWFRGKDLDKDEEFQKFISVPENREYVYGDTATLLDKKLPKSNWLAMWIFLGAIAVVALLGADSDLRPSFGGKPLSMVLVIQMFMLLTGALIIILTKTNPASISKNEVFRSGMIAIVAVYGIAWMAETMFGAHMSEIQGVLGEMVKEYPWAYAIVLLLVSKFVNSQAAALAAIVPVALAIGVDPAYIVASAPACYGYYILPTYPSDLAAIQFDRSGTTHIGRFVINHSFILPGLIGVSVSCVFGWIFAAMYGFL [P0ABN9]”, for which the “total protein half-life in vivo” value is, setting by setting: under setting [1], 7.71 h; under setting [2], 5.98 ± 1.5 h; under setting [3], 5.58 ± 0.66 h; under setting [4], 6.04 ± 0.11 h; under setting [5], 12.9 ± 1.5 h; under setting [6], greater than 16 h.

As to “MEALGMIETRGLVALIEASDAMVKAARVKLVGVKQIGGGLCTAMVRGDVAACKAATDAGAAAAQRIGELVSVHVIPRPHGDLEEVFPIGLKGDSSNL [P0ABF4]”, the “total protein half-life in vivo” value is 4.35 ± 0.68 h under setting [1]; 7.77 h under setting [2]; 4.24 ± 0.36 h under setting [3]; 4.82 ± 0.61 h under setting [7]; 4.98 ± 0.22 h under setting [8]; 2.59 ± 0.7 h under setting [9]. Further, the “total protein half-life in vivo” value reads like this: under setting [10], 5.83 ± 0.41 h; under setting [11], 11.5 ± 1.5 h; under setting [4], 4.8 ± 0.3 h; under setting [5], 7.48 ± 0.57 h; under setting [12], 5.28 ± 0.062 h; under setting [6], 12.1 ± 1.1 h.

For the sequence “MSVPVQHPMYIDGQFVTWRGDAWIDVVNPATEAVISRIPDGQAEDARKAIDAAERAQPEWEALPAIERASWLRKISAGIRERASEISALIVEEGGKIQQLAEVEVAFTADYIDYMAEWARRYEGEIIQSDRPGENILLFKRALGVTTGILPWNFPFFLIARKMAPALLTGNTIVIKPSEFTPNNAIAFAKIVDEIGLPRGVFNLVLGRGETVGQELAGNPKVAMVSMTGSVSAGEKIMATAAKNITKVCLELGGKAPAIVMDDADLELAVKAIVDSRVINSGQVCNCAERVYVQKGIYDQFVNRLGEAMQAVQFGNPAERNDIAMGPLINAAALERVEQKVARAVEEGARVAFGGKAVEGKGYYYPPTLLLDVRQEMSIMHEETFGPVLPVVAFDTLEDAISMANDSDYGLTSSIYTQNLNVAMKAIKGLKFGETYINRENFEAMQGFHAGWRKSGIGGADGKHGLHEYLQTQVVYLQS”, the “total protein half-life in vivo” value runs as follows: under setting [1], 4.75 ± 0.26 h; under setting [2], 4.93 ± 1 h; under setting [3], 3.81 ± 0.14 h; under setting [7], 4.56 ± 0.062 h; under setting [8], 4.55 ± 0.52 h; under setting [9], 3.19 ± 0.26 h. The “total protein half-life in vivo” value runs as follows: under setting [10], 5.86 ± 0.33 h; under setting [11], 10.24 ± 0.092 h; under setting [4], 4.82 ± 1.6 h; under setting [5], 5.01 ± 1.9 h; under setting [12], 5.871 ± 0.049 h; under setting [6], 11.3 ± 0.13 h.

Regarding “MSIVMQLQDVAESTRLGPLSGEVRAGEILHLVGPNGAGKSTLLARMAGMTSGKGSIQFAGQPLEAWSATKLALHRAYLSQQQTPPFATPVWHYLTLHQHDKTRTELLNDVAGALALDDKLGRSTNQLSGGEWQRVRLAAVVLQITPQANPAGQLLLLDEPMNSLDVAQQSALDKILSALCQQGLAIVMSSHDLNHTLRHAHRAWLLKGGKMLASGRREEVLTPPNLAQAYGMNFRRLDIEGHRMLISTI”, the “total protein half-life in vivo” value by setting is: under setting [1], 4.65 ± 0.84 h; under setting [2], 2.32 ± 0.27 h; under setting [3], 3.72 h; under setting [7], 2.59 h; under setting [8], 2.37 ± 0.03 h; under setting [9], 2.13 ± 0.1 h. The “total protein half-life in vivo” value turned out to be 3.49 ± 0.41 h under setting [10]; 4.65 h under setting [11]; 3.11 ± 0.33 h under setting [4]; 4.37 h under setting [12]; 6.509 ± 0.027 h under setting [6].

Turning to “MSHSSAPERATGAVITDWRPEDPAFWQQRGQRIASRNLWISVPCLLLAFCVWMLFSAVAVNLPKVGFNFTTDQLFMLTALPSVSGALLRVPYSFMVPIFGGRRWTAFSTGILIIPCVWLGFAVQDTSTPYSVFIIISLLCGFAGANFASSMANISFFFPKQKQGGALGLNGGLGNMGVSVMQLVAPLVVSLSIFAVFGSQGVKQPDGTELYLANASWIWVPFLAIFTIAAWFGMNDLATSKASIKEQLPVLKRGHLWIMSLLYLATFGSFIGFSAGFAMLSKTQFPDVQILQYAFFGPFIGALARSAGGALSDRLGGTRVTLVNFILMAIFSGLLFLTLPTDGQGGSFMAFFAVFLALFLTAGLGSGSTFQMISVIFRKLTMDRVKAEGGSDERAMREAATDTAAALGFISAIGAIGGFFIPKAFGSSLALTGSPVGAMKVFLIFYIACVVITWAVYGRHSKK”, under setting [5], the “total protein half-life in vivo” value was determined as 8.46 h.

Take “MSKQSQHVLIALPHPLLHLVSLGLVSFIFTLFSLELSQFGTQLAPLWFPTSIMMVAFYRHAGRMWPGIALSCSLGNIAASILLFSTSSLNMTWTTINIVEAVVGAVLLRKLLPWYNPLQNLADWLRLALGSAIVPPLLGGVLVVLLTPGDDPLRAFLIWVLSESIGALALVPLGLLFKPHYLLRHRNPRLLFESLLTLAITLTLSWLSMLYLPWPFTFIIVLLMWSAVRLPRMEAFLIFLTTVMMVSLMMAADPSLLATPRTYLMSHMPWLPFLLILLPANIMTMVMYAFRAERKHISESETHFRNAMEYSAIGMALVGTEGQWLQTNKALCQFLGYSQEELRGLTFQQLTWPEDLNKDLQQVEKLISGEINTYSMEKRYYNRNGDVVWALLAVSLVRHTDGTPLYFIAQIEDINELKRTEQVNQQLMERITLANEAGGIGIWEWELKPNIFSWDKRMFELYEIPPHIKPNWQVWYECVLPEDRQHAEKVIRDSLQSRSPFKLEFRITVKDGIRHIRALANRVLNKEGEVERLLGINMDMTEVKQLNEALFQEKERLHITLDSIGEAVVCIDMAMKITFMNPVAEKMSGWTQEEALGVPLLTVLHITFGDNGPLMENIYSADTSRSAIEQDVVLHCRSGGSYDVHYSITPLSTLDGSNIGSVLVIQDVTESRKMLRQLSYSASHDALTHLANRASFEKQLRILLQTVNSTHQRHALVFIDLDRFKAVNDSAGHAAGDALLRELASLMLSMLRSSDVLARLGGDEFGLLLPDCNVESARFIATRIISAVNDYHFIWEGRVHRVGASAGITLIDDNNHQAAEVMSQADIACYASKNGGRGRVTVYEPQQAAAHSERAAMSLDEQWRMIKENQLMMLAHGVASPRIPEARNLWLISLKLWSCEGEIIDEQTFRRSFSDPALSHALDRRVFHEFFQQAAKAVASKGISISLPLSVAGLSSATLVNDLLEQLENSPLPPRLLHLIIPAEAILDHAESVQKLRLAGCRIVLSQVGRDLQIFNSLKANMADYLLLDGELCANVQGNLMDEMLITIIQGHAQRLGMKTIAGPVVLPLVMDTLSGIGVDLIYGEVIADAQPLDLLVNSSYFAIN”: the “total protein half-life in vivo” value reads like this: under setting [1], 4.93 ± 0.2 h; under setting [11], 9.36 h; under setting [12], 1.53 h.

On to “MTTLTARPEAITFDPQQSALIVVDMQNAYATPGGYLDLAGFDVSTTRPVIANIQTAVTAARAAGMLIIWFQNGWDEQYVEAGGPGSPNFHKSNALKTMRKQPQLQGKLLAKGSWDYQLVDELVPQPGDIVLPKPRYSGFFNTPLDSILRSRGIRHLVFTGIATNVCVESTLRDGFFLEYFGVVLEDATHQAGPKFAQKAALFNIETFFGWVSDVETFCDALSPTSFAHIA”, for which the “total protein half-life in vivo” value was found to be 4.33 ± 0.13 h under setting [1]; 1.41 ± 0.23 h under setting [2]; 0.334 h under setting [3]; 0.503 ± 0.025 h under setting [7]; 0.441 h under setting [8]; 0.812 h under setting [5].

As to “MLSGKDLGRAIEQAINKKIASGSVKSKAEVARHFKVQPPSIYDWIKKGSISKDKLPELWRFFSDVVGPEHWGLNEYPIPTPTNSDTKSELLDINNLYQAASDEIRAIVAFLLSGNATEPDWVDHDVRAYIAAMEMKVGKYLKALESERKSQNITKTGT”, the “total protein half-life in vivo” value is 4.75 h under setting [2]; 5.53 ± 0.81 h under setting [3]; 7.1 h under setting [7]; 5.32 h under setting [8]; 5.48 h under setting [10]; 9.89 h under setting [11]. The “total protein half-life in vivo” value under setting [4] was determined as 4.71 h, the “total protein half-life in vivo” value under setting [5] was 8.69 h, the “total protein half-life in vivo” value under setting [12] is 5.35 h and the “total protein half-life in vivo” value under setting [6] was 10.4 ± 2 h.
